In article PMC6985235:

Experiments:
Myb3 (endogenous) = test: co-immunoprecipitation with anti-HA antibody, Western blotting; details: for ratio to parent: three experiments
[1] = biological target: binding immunoglobulin protein (TvBip); test: as above; details: three experiments
[2] = biological target: heat shock protein 72 (TvHSP72); test: as above; details: three experiments
[3] = biological target: hydrogenosomal heat shock protein 70 (HdHSP70); test: as above; details: total lysate, three experiments
TvMyb3IPhmw = test: as above; details: P100 fraction; three experiments
[4] = biological target: His-TvCyP2 (Trichomonas vaginalis) (UniProt A2DLL4); test: ITC

Which ratio to parent (Myb3 (endogenous); total lysate, ** p < 0.01) does the source give for HA-TvCyP1 (from UniProt A2DT06) R63A here?
Its ratio to parent is 0.6.

What about the ratio to parent ([1]; total lysate) of the same substance?
Its ratio to parent is 1.

And the ratio to parent ([2]; total lysate, ** p < 0.01)?
The ratio to parent was 0.5.

What about the ratio to parent ([3]; ** p < 0.01) of the same substance?
The ratio to parent was 0.1.

Which other: relative signal intensity (Myb3 (endogenous)) does the source give for HA-TvCyP2 (from UniProt A2DLL4) R75A here?
The other: relative signal intensity was 0.1.

What about the ratio to parent (Myb3 (endogenous); P15 fraction, * p < 0.05) of the same substance?
The ratio to parent was 0.7.

What about the ratio to parent (Myb3 (endogenous); P100 fraction, ** p < 0.01) of the same substance?
Its ratio to parent is 0.5.

And the ratio to parent (Myb3 (endogenous); total lysate, ** p < 0.01)?
The ratio to parent was 0.4.

What about the ratio to parent (TvMyb3IPhmw) of the same substance?
The ratio to parent was 1.

And the ratio to parent ([1]; P15 fraction)?
Its ratio to parent is 1.

What about the ratio to parent ([1]; P100 fraction) of the same substance?
The ratio to parent was 1.

What about the ratio to parent ([1]; total lysate, ** p < 0.01) of the same substance?
Its ratio to parent is 0.

And the ratio to parent ([2]; P100 fraction, * p < 0.05)?
Its ratio to parent is 0.7.

And the ratio to parent ([2]; S100 fraction, ** p < 0.01)?
Its ratio to parent is 0.6.

What about the ratio to parent ([2]; total lysate, ** p < 0.01) of the same substance?
Its ratio to parent is 1.6.

What about the ratio to parent [3] of the same substance?
The ratio to parent was 0.9.

With His-Myb3^53–180 (domain or fragment) as the substance, how does the Kd [4] read?
The Kd was 55 µM.
